Experimental findings from US20250064853A1 (GYALA THERAPEUTICS SOCIEDAD LIMITADA, published 2025) are described below.

T1: human CD84 on cells (human, UniProt Q9UIB8 22-345)
T1 construct: the cells were 300.19 cells stably transfected with CD84 full-length DNA, or Raji, Ramos, MOLM-13 cells, lymphocytes and monocytes with their own CD84; also called LY9B; SLAMF5
T1 sequence: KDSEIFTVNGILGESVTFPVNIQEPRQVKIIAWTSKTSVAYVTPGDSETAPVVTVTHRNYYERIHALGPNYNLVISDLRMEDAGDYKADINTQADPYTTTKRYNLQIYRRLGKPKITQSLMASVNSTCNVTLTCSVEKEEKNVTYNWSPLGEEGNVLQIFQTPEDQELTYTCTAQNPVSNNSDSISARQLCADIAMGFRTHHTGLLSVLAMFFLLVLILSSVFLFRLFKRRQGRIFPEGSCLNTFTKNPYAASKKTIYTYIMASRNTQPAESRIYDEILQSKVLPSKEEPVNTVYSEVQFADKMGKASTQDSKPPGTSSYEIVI

B1: 152-1D5 (antibody, IgG1, V domains shown)
VH: QVQLQQPGAEVVQPGTSVKLSCKASGYNFTNYWINWVKLRPGQGLEWIGDIYPVSGTTNYNEKFKRKATLTVDTSSSTGNMQLSSLASEDSALYYCASGTGRFAYWGQGTLVTVSA
VL: DIVLTQSPASLAVSLGQRATISCRASQSVSTSSYSYMHWYQQKPGQPPKLLIKFASNLESGVPARFSGSGSGTDFTLNIHPVEEEDTATYYCQHSWEIPYTFGGGTKLEIK
notes: tested as hybridoma supernatant; also called anti-CD84 mouse monoclonal antibody 152-1D5
B2: GYCD84.1-97 (antibody, IgG2a, V domains shown)
VH: QVQLQQPGAELVKPGTSVKLSCKASGYNFTSYWINWVKLRPGQGLEWIGDIYLGSGSTNYNEKFKSKATLTVDTSSSSAYMQLSSLVSEDSALYYCATSGGYLGYWGQGTTLTVSS
VL: DIVLTQSPASLAVSLGQRATISCRASQSVSTSSYSYMHWYQQKPGQPPKLLIKFASNLESGVPARFSGSGSGTDFTLNIHPVEEEDTATYYCQHSWEIPYTFGGGTKLEIK
notes: tested as hybridoma supernatant
B3: GYCD84.5.171 (antibody, IgG1, V domains shown)
VH: EVQLVESGGGLVQPKGSLKLACAASGFTFNIYAMNWVRQAPGKGLEWVARIRSKSNNYARFYADSVKDRFTISRDDSQSMLYLQMNNLKTEDTAMYYCVRPLRSYFSMDYWGQGTSVTVSS
VL: SIVMTQSPKSMSMSVGERVTLSCKASENVDTYVSWYQQKPEQSPKLLIYGASNRYTGVPDRFTGSGSATDFTLTISSVKAEDLADYHCGQTYSYPWTFGGGTKLEIK
notes: as for B2

The assay has as its target T1, human CD84 on cells. Kind of assay: flow cytometry, hybridoma supernatant, 300.19 cells transfected with CD84. In general terms: In flow cytometry, cells or beads pass a laser one at a time.
Consider B1, for which the 300.19-CD84 binding stood at 92.5%. For B2, the 300.19-CD84 binding was 97.7%.

For the molecule B3, the 300.19-CD84 binding turned out to be 93.2%.
